Conditions in all cases: both partners purified
In assay [1] the target is T1, GST-hTEAD1(209-426) (human, UniProt P28347 209-426).
T1 construct: A 3C protease site stands between tags and protein; also called human TEAD1; source: E. coli BL21 DE3 RIL, purified (His Trap, SEC); not shown: GST, N-terminal, kept
The experiment in a line: SPR; GST-hTEAD1 or mTEAD4 amine-coupled to a CM5 chip (10 mM MES pH 6.4), peptides as analytes; 10 mM HEPES, 150 mM NaCl, 0.05% Tween-20, pH 7.4, 20 °C, 30 µL/min; steady-state fit, 1:1 model.

For assay [2], the target named is T2, mouse TEAD4(210-427) (mouse, UniProt Q62296 210-427).
T2 construct: mouse TEAD4, residues 210-427; The tag was cleaved with 3C protease only for the crystallisation; nothing is said for SPR and FP; also called mTEAD4; source: E. coli BL21 DE3 RIL, purified (His Trap, SEC)
Described as above.

The target of assay [3] is T1, GST-hTEAD1(209-426). The assay is described as above. This is another data set of the same source.
Assay [4] addresses T2, mouse TEAD4(210-427). Described as above. This is another data set of the same source.
Assay [5] concerns the target T1, GST-hTEAD1(209-426). The description is as above. This is another data set of the same source.
For assay [6], the target named is T2, mouse TEAD4(210-427). The assay is described as above. This is another data set of the same source.
Assay [7] addresses T1, GST-hTEAD1(209-426). Described as above. The source holds these as a separate data set.
In assay [8] the target is T2, mouse TEAD4(210-427). The assay is described as above. This is another data set of the same source.
Assay [9] has as its target T1, GST-hTEAD1(209-426). As to the kind of experiment: fluorescence polarisation; direct: FITC-labelled peptide (10 nM) titrated with hTEAD1 or mTEAD4; 10 mM HEPES, 150 mM NaCl, 0.1% Tween-20, pH 7.4; read after 1 h. In general terms: Polarisation of emitted light reports the rotation of a fluorescent probe.
Assay [10] deals with T2, mouse TEAD4(210-427). The description is as above.
Assay [11] addresses T3, mouse TEAD4(210–427), as purified (SPR) (mouse, UniProt Q62296 210-427).
T3 construct: cDNA fused with a 6x His-tag and a 3C protease cleavage site in pOPIN S; No tag cleavage is told for the protein used in SPR; cleavage is told only for the crystallised complex; also called mTEAD4; source: E. coli BL21 DE3 RIL, purified (His Trap, SEC)
The experiment in a line: SPR; GST-hTEAD1 and mTEAD4 covalently tethered (NHS/EDC) on CM5 chips, 2000–3000 RU; peptides as analytes, threefold dilutions, typically 30 µM top concentration; 10 mM HEPES, 150 mM NaCl, 0.05% Tween-20, pH 7.4, 0.3% DMSO, 20 °C; steady-state fit, 1:1 model.

Assay [12] concerns the target T2, mouse TEAD4(210-427). As to the kind of experiment: SPR; GST-hTEAD1 or mTEAD4 amine-coupled to a CM5 chip (10 mM MES pH 6.4), peptides as analytes; 10 mM HEPES, 150 mM NaCl, 0.05% Tween-20, pH 7.4, 20 °C, 30 µL/min; steady-state fit, 1:1 model. This is another data set of the same source.

Bridge positions count the residues as written; N and C are the ends. Square brackets hold non-standard residues; d marks the D form. Ends that are not written are not given here. AEEA = NCCOCCOCC(=O)O

T2 sequence (Q62296 210-427): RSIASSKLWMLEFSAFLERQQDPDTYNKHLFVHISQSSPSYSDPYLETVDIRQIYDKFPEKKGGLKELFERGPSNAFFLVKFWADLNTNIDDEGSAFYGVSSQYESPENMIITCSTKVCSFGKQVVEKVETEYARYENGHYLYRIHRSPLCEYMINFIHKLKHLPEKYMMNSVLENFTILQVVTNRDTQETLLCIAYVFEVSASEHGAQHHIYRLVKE
T1 sequence (P28347 209-426): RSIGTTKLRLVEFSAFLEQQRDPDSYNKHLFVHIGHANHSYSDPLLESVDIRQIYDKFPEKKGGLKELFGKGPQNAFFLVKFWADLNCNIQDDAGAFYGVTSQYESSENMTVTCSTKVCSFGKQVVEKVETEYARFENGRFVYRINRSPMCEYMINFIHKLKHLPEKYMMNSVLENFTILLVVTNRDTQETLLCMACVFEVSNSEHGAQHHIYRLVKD
T3 sequence (Q62296 210-427): as the sequence (Q62296 210-427) above

B1: peptide 4E(open), acetylated (peptide)
peptide: Ac-SVEDHFAKALGDTWLQIKAA
notes: VGL4 two-helix motif with E at 235, not cyclised; numbers count on: mouse VGL4 as in PDB 4LN0; Synthesised on Rink amide resin: C-terminal amide surmised; also called linear version of 4E; source: synthetic peptide
In general, Kd refers to the constant that tells how readily two partners part at equilibrium. Low values mean a tighter complex, high ones a looser complex. Consider B1, for which the values for the Kd in the assay with GST-hTEAD1(209-426) [1] and with mouse TEAD4(210-427) [2] were 3100 nM and 2400 nM, respectively.

B2: peptide 4, acetylated (two-helix motif of VGL4) (peptide)
peptide: Ac-SVDDHFAKALGDTWLQIKAA
notes: VGL4 two-helix motif (helices alpha2/alpha3); Synthesised on Rink amide resin: C-terminal amide surmised; source: synthetic peptide
For the molecule B2, the Kd with GST-hTEAD1(209-426) [3] is 830 ± 780 nM; with mouse TEAD4(210-427) [4], 1500 ± 1000 nM.

B3: peptide 7, acetylated (Tat-PEG2-4E) (peptide)
peptide: Ac-GRKKRRQRRRPQ[AEEA]SVEDHFAKALGDTWLQIKAA-NH2
modifications: lactam 16-31; not fully specified (some residues)
notes: cell-penetrating Tat peptide; macrocyclic VGL4 two-helix motif 4E; numbers count on: mouse VGL4 as in PDB 4LN0; The two parts are joined by a PEG2 unit that is no amino acid; Rink amide resin: C-terminal amide surmised; source: synthetic peptide
Take B3: the Kd amounted to 830 ± 780 nM with GST-hTEAD1(209-426) [5] and 1500 ± 1000 nM with mouse TEAD4(210-427) [6].

B4: VGL4(203-256), acetylated (peptide 1) (peptide)
peptide: Ac-DPVVEEHFRRSLGKNYKEPEPAPNSVSITGSVDDHFAKALGDTWLQIKAAKDSA
notes: numbers count on: mouse VGL4 as in PDB 4LN0; Synthesised on Rink amide resin: C-terminal amide surmised (masses fit); also called hVGL4(203-256); source: synthetic peptide
B4: the Kd was determined as 4300 nM with GST-hTEAD1(209-426) [7] and 3100 nM with mouse TEAD4(210-427) [8].

B5: FITC-labelled VGL4(203-256) (peptide)
peptide: DPVVEEHFRRSLGKNYKEPEPAPNSVSITGSVDDHFAKALGDTWLQIKAAKDSA
modifications: also: FITC label, place not given here
notes: numbers count on: mouse VGL4 as in PDB 4LN0; also called FITC-VGL4
Consider B5, for which the values for the Kd in the assay with GST-hTEAD1(209-426) [9] and in the assay with mouse TEAD4(210-427) [10] were 17 ± 2.5 nM and 9.2 ± 0.6 nM, respectively.

B6: VGL4(203–256), full-length VGL4-derived TEAD binding sequence (peptide 1) (peptide, UniProt Q80V24 203-256, looked up)
peptide: B5 peptide
notes: mouse and human VGL4 are said to be identical in this stretch; Made on Rink amide resin, so probably a C-terminal amide; source: synthetic peptide (Fmoc solid-phase synthesis, RP-HPLC purified)
For the molecule B6, binding in assay [11] was put at a Kd of 2000 nM.

B7: YAP(50-100) (peptide, UniProt P46937 50-100, looked up)
peptide: AGHQIVHVRGDSETDLEALFNAVMNPKTANVPQTVPMRLRKLPDSFFKPPE
notes: yes-associated protein YAP, residues 50-100
The molecule B7 returned a Kd with mouse TEAD4(210-427) [12] of 700 nM.
